This note sets out measurements from US20230312739A1 (BIOTHEUS, published 2023).

Residue numbers refer to the chain shown, from its start.

Assay [1] concerns the target T1, human CD73 on the cell surface (tumor cells endogenously expressing human CD73; CHOS-human CD73) (human, UniProt P21589 27-549).
T1 construct: The endogenous CD73 of the human tumor lines (MDA-MB-231, Calu6, SK-ME-S, H2030, SKLU1, BT549, A375, HCC44) is treated as the same protein
T1 sequence: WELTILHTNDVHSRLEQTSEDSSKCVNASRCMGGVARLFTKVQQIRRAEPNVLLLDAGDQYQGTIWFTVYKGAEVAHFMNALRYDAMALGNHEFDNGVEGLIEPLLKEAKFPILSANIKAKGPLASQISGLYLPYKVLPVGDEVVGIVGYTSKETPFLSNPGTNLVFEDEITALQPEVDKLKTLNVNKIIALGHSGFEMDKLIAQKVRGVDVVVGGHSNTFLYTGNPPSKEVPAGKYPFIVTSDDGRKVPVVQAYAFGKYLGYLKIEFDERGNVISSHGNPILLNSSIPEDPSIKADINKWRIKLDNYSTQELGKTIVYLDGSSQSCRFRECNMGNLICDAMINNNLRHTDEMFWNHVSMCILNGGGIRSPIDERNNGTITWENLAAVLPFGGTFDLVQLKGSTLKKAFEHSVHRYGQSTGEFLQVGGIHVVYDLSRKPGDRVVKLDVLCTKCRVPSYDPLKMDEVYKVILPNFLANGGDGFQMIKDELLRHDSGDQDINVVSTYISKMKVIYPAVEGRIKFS
Put plainly: full-field cell scanning analyzer (Celigo), percent fluorescent cells, BT549 cells endogenously expressing human CD73. On the procedure: (§1) Experimental method: 10,000 cells were plated on a flat-bottom 96-well plate with 100 μL DMEM+10% FBS/well, cultured overnight so that the cells adhered to the well, and the supernatant was discarded on the next day. Serial 3-fold dilutions of antibody for 8 points were performed by diluting ⅓ of the total volume (100 μL) in 200 μL DMEM. 100 μL of the diluted antibody was added to each well of the cell plate (the supernatants of fused clones or subclones were used for screening), 100 μL of DMEM was added to the corresponding negative control well, and incubation was performed at room temperature for 1 hour. After the supernatant was discarded, 100 μL of secondary antibody (DyLight488 goat anti-mouse IgG (Abcam, Cat. No. ab97015)) was added to each well at a concentration of 5 μg/mL (diluted in DMEM), and incubation was performed for 0.5 hours at room temperature. After staining, the supernatant was discarded, followed by washing once with PBS+2% FBS, then 100 μL of PBS+2% FBS was added to each well, and then reading was performed on analyzer. A full-field cell scanning analyzer (Nexcelom Company, model Celigo® Image Cytometer) was used to measure the reading of the experimental plate. […] The binding effect of the anti-CD73 antibody to the CD73-expressing cell line was determined according to the percentage. […]

Assay [2] addresses T1, human CD73 on the cell surface (tumor …). Put plainly: full-field cell scanning analyzer (Celigo), percent fluorescent cells, SK-ME-S cells endogenously expressing human CD73. As to the method: as §1
The target in assay [3] is T2, CD73 on cynomolgus macaques CD3+CD8+ T cells (cynomolgus macaques, UniProt A0A2K5V5U7 27-549).
T2 construct: whole, on cells; also called cynomolgus macaques T cells; cynomolgus macaques PBMC
T2 sequence: T1 sequence with M199T, T350A, V466I
Put plainly: flow cytometry on cynomolgus macaque PBMC, CD3+CD8+ T cells, donor 1300M. As to the method:
(§2) Monkey blood samples from two donors (1132F and 1300M) were obtained from Medicilon. Peripheral blood mononuclear cells (PBMCs) were isolated using a Ficoll density gradient centrifugation system. The PBMCs were incubated with the antibody to be tested, then the antibodies bound on the cells were stained with fluorochrome-labeled secondary antibodies (DyLight488 goat anti-mouse IgG, Abcam Cat. No. ab97015; DyLight488 goat anti-human IgG, Abcam Cat. No. ab97003), and the fluorochrome-labeled antibodies against CD3+ and CD8+ were used to recognize T cells. Together with the unstained control samples and the fluorescence compensation control samples, all the samples were run on a flow cytometer to detect the binding of the antibodies to cynomolgus macaques T cells.
Background: In flow cytometry, cells or beads pass a laser one at a time.

The target in assay [4] is T1, human CD73 on the cell surface (tumor …). Put plainly: full-field cell scanning analyzer (Celigo), percent fluorescent cells, Calu6 cells endogenously expressing human CD73. As to the method:
as §1

Assay [5] deals with T2, CD73 on cynomolgus macaques CD3+CD8+ T …. Put plainly: flow cytometry on cynomolgus macaque PBMC, CD3+CD8+ T cells, donor 1132F. As to the method: as §2
Assay [6] concerns the target T1, human CD73 on the cell surface (tumor …). Put plainly: full-field cell scanning analyzer (Celigo), percent fluorescent cells, MDA-MB-231 cells endogenously expressing human CD73. As to the method: as §1

B1: murine antibody 13D12 (antibody, V domains shown)
VH: DVKLQESGPAMVKPSQSLSLTCTVTGYSITSGYDWHWIRLFPGNKLEWMGYISYSGYTDYSPSLKSRISITHDTSKNHFFLKLHSVTTEDTATYYCTRGDHSYAMDYWGQGTSVTVS
VL: DIVMTQSHKFMSTSVGDRVSITCKASQAVGTAVAWYQQKPGQSPKLLIYWASSRHTGVPDRFTGSRSGTDFTLTISSVQSEDLADYFCQQYSSYPLTFGGGTNLEIK
notes: Mouse monoclonal antibody purified from hybridoma supernatant; also called mouse monoclonal antibody 13D12
Consider B1, for which the EC50 in assay [1] was found to be 1.78 mg/L; in assay [2], 1.72 mg/L; in assay [4], 0.47 mg/L; in assay [6] it was 0.9 mg/L. Moreover, the “MFI FC (fold change of mean fluorescence intensity)” value in assay [3] was 2.8 fold; in assay [5], 5 fold.

A word on the EC50: it is the concentration at which the effect is half-maximal. Lower therefore signals a more potent agent.
